Literature values, collected in patent publication EP4471063A1, “ANTIBODY AGAINST HER3, CONJUGATE AND USE THEREOF” (priority 2022, dated 2023).

Experiments:
[1] = multicenter clinical studies
[2] = once every three weeks, five administrations, 0, 3, 10, 30 mg/kg

Patritumab Deruxtecan
thrombocytopenia as treatment emergent adverse event (TEAE) [1]: 30% | body weight (at all doses): no significant abnormality | toxic target organs (cynomolgus monkey, in vivo): thymus, bone marrow, and skin | dose at which a decrease in reticulocytes, lymphocytes, and platelets was observed [2]: ≥ 3 mg/kg | dose at which transferases increased [2]: ≥ 10 mg/kg
